Patent US10494439 (dated 2019)

Columns and labels:
GLD52 = assay: SPR
Y436T = assay: SPR

Kd (GLD52): 2.44 nM
Kd (Y436T): 1.95 nM
B1: CD52 peptide 741 (peptide)
peptide: GQNDTSQTSSPS
